Assay results taken from patent US20200362047A1 (CRESCENDO BIOLOGICS, published 2020).

B1: 4.1(PSMA-binding VH)-6GS-1.1 (bispecific antibody)
chain: EVQLVESGGGVVQPGRSLRLSCAASGFSFSGYGMHWVRQAPGKGLEWVAYISYDGSNKYYADSVKGRFTISRDNSKNTLYLQMNSLRAEDTAVYYCAKDPAWGLRLGESSSYDFDIWGQGTMVTVSSGGGGSGGGGSGGGGSGGGGSGGGGSGGGGSEVQLVESGGGLVQPGGSLRLSCAASGFTFSSHWMTWFRQAPGKGLEWVAHIKEDGSEKYYEDSVEGRFTVSRDNAKNSVYLQMNSLRAEDTAVYYCARGGDGYSDSHFGVDVWGQGTTVTVSS
notes: tandem VH, PSMA x CD137; also called 4.1-6GS-1.1; not shown: His tag
B2: 4.1(PSMA-binding VH)-6GS-2.1 (bispecific antibody)
chain: EVQLVESGGGVVQPGRSLRLSCAASGFSFSGYGMHWVRQAPGKGLEWVAYISYDGSNKYYADSVKGRFTISRDNSKNTLYLQMNSLRAEDTAVYYCAKDPAWGLRLGESSSYDFDIWGQGTMVTVSSGGGGSGGGGSGGGGSGGGGSGGGGSGGGGSEVQLVESGGGLVKPGGSLRVSCAASGFTFSDYYMSWFRQAPGKGLEWVSYISGSGDIIDYADSVKGRFTISRDNAKNSLYLQMNNLRAEDTAVYHCAREDSRLTGTTDFDNWGQGTLVTVSS
notes: tandem VH, PSMA x CD137; also called 4.1-6GS-2.1; not shown: His tag
B3: Humabody VH 1.113 (VHH)
VH: EVQLVESGGGLVQPGGSLRLSCAASGFTLSNYWMNWVRQAPGKGLEWVANINQDGSERYYVDSVKGRFTISRDNAKNSLYLQMNSLRAEDTAVYYCARGGEGYGVDHYGLDVSGQGTTVTVSSHHHHHH
notes: human single VH domain

How the values were obtained:
[1] = molecular target: T1, human PSMA expressed on cells (human, UniProt Q04609 1-750); assay: FMAT, DU145 PSMA cells
T1 construct: One molecule for both cell lines (CHO human PSMA, DU145 PSMA); the cell line stands under assay; also called CHO human PSMA; CHO PSMA
Experimental: (§1) Binding of His-tagged molecules to CHO human CD137, CHO parent, CHO human PSMA, DU145 PSMA and DU145 parent cells was assessed using Fluorescence Microvolume Assay Technology (FMAT). All reagents were prepared in FMAT assay buffer (pH 7.4) containing PBS, 0.1% Bovine Serum Albumin, 0.05% Sodium Azide. Serially diluted samples were transferred into 384 well black clear-bottomed assay plates (Costar cat. no. 3655) and incubated for a minimum of 2 hours at room temperature with 1.5 nM Anti-His (Millipore cat. no. 05-949), […] Goat Anti-Mouse Alexa Fluor-488 (Jackson ImmunoResearch cat. no. 115-545-071) and 2000 cells/well pre-stained with DRAQ5 (Thermo Scientific cat. no. 62251). Fluorescence emission was then measured on the TTP Mirrorball plate reader in the FL2 (502 nm-537 nm) and FL5 (677-800 nm) channels following excitation at 488 nm and 640 nm. Data was gated on FL5 perimeter and peak intensity and the FL2 median mean fluorescence intensity of the gated data used for determination of VH binding. Monovalent CD137 specific Humabody® VH, bispecific and trispecific molecules with a CD137 binding arm bound to CHO CD137 expressing cells. Monovalent PSMA specific Humabody® VH, bispecific and trispecific molecules with a PSMA binding arm bound to PSMA expressing cells.

[2] = molecular target: T1, human PSMA expressed on cells; assay: FMAT, CHO human PSMA cells
Experimental: as §1

[3] = molecular target: T2, human CD137 expressed on the surface of CHO cells (human, UniProt Q07011 24-255); assay: FMAT, CHO human CD137 cells
T2 construct: Also used for the Jurkat reporter cells that express human CD137 (functional rows); also called CHO human CD137 cells; CHO huCD137
Experimental: as §1

[4] = molecular target: T2, human CD137 expressed on the surface of …; assay: FMAT ligand inhibition, CD137 Ligand on CHO human CD137 cells
Procedure, shortened: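 Purified Humabody VH was tested in an FMAT format for blocking human CD137 ligand binding to CHO cells expressing human CD137. FL2 median fluorescence was measured and background from excess non-Fc-tagged competitor wells subtracted. Signal was expressed as % of total binding control.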

[5] = molecular target: T3, human CD137-human Fc chimeric protein (Acro Biosystems cat no. 41B-H5258) (human, UniProt Q07011 24-186); assay: BLI (Octet RED384), CD137-Fc amine-coupled to AR2G sensors, 1:1 model
T3 construct: Bought protein; The Octet Protein G and Biacore experiments name no catalogue number; also called human CD137Fc recombinant protein; human CD137-Fc recombinant protein; not shown: human IgG1 Fc tag
Experimental: (§2) The kinetics of monovalent and bispecific Humabody VH were determined on a ForteBio Octet RED 384 instrument. To study the interaction with the antigens, CD137-Fc tag protein (Acro Biosystems cat no. 41B-H5258) or PSMA-his (R&D Systems cat no. 4234-ZN) was immobilised onto AR2G biosensors (ForteBio cat no. 18-5082) by amine coupling. Monovalent VH and bispecific molecules were serially diluted (typically 1:2 dilution series starting between 12-25 nM, at the highest concentration) in kinetics buffer (0.1% BSA, 0.02% Tween, 1×PBS) and binding to the immobilised proteins was studied during the association and dissociation phases. PSMA binding was measured using 180 seconds association and 600 seconds dissociation phases. CD137 binding was measured 180 seconds association and 600 seconds dissociation phases. Reference subtracted data were fitted to a 1:1 binding model using the ForteBio Octet Data Analysis software.

[6] = molecular target: T4, PSMA-his (R&D Systems cat no. 4234-ZN) (human, UniProt Q04609 44-750); assay: BLI (Octet RED384), PSMA-his amine-coupled to AR2G sensors, 1:1 model
T4 construct: Bought protein; also called Human PSMA; not shown: His tag
Experimental: as §2

[7] = molecular target: T5, CD137 on pre-stimulated human CD8+ T cells (human, UniProt Q07011 24-255); assay: flow cytometry, PMA/ionomycin-stimulated human CD8+ T cells, mean of 2-3 donors
T5 construct: also called pre-stimulated CD8+ cells; primary T cells
Experimental: Binding to primary T cells was measured using flow cytometry. Peripheral blood mononuclear cells (PBMCs) were isolated from human blood by density gradient centrifugation then CD8+ T cells purified using a negative selection isolation kit according to the manufacturer's protocol (Miltenyi Biotech cat no 130-042-401). T-cells were stimulated PMA/Ionomycin for 48-72 hours in RPMI media supplemented with 10% FBS, 2 mM Glutamine, 1× Pen/Strep. Cells were transferred into 96 well plates, blocked for 10 mins with staining buffer (PBS/1% BSA/0.05% Sodium Azide) then incubated with serially diluted VH in staining buffer (PBS/1% BSA) for 30 mins-1 hour at 4° C. Cells were washed by centrifugation then VH binding detected using Anti His antibody (Millipore 05-949) and Goat Anti Mouse Alexa Fluor-488 (Jackson ImmunoResearch cat no. 115-545-071). A Live Dead near IR stain (Molecular Probes cat no. L10119) was used for discrimination of live cells. After further washing cells were fixed and fluorescence measured by flow cytometry.

[8] = molecular target: T1, human PSMA expressed on cells; assay: dual binding cell ELISA: the titrated step is the binding of the bispecific to CHO human PSMA cells; readout is bound CD137huFc (fixed 1 nM) with anti human Fc-HRP, so the value reflects dual engagement
Experimental: Dual target engagement of CD137 and PSMA by the bispecific molecules was assessed using an ELISA format. CHO-PSMA cells (20000/well) were seeded into 96 well plates (Greiner cat no. 353872) in Hams F12 supplemented with L-Glutamine+Blasticidin+Tetracycline and incubated at 37° C. with 5% CO₂ overnight. All subsequent steps were performed at room temperature and included washes with PBS between each step. Plates were blocked with PBS/0.1% BSA for 1 hour then serially diluted Humabody® VH were added and allowed to bind for 1 hour. Following removal of unbound VH, 1 nM CD137huFc (Acro Biosystems cat no. 41B-H5258) was added to the wells and incubated for 1 hour. A 1:3000 dilution of Anti-huFc-HRP (Jackson ImmunoResearch cat no. 109-035-098) was subsequently added for 1 hour and plates developed by addition of TMB. The reaction was stopped by addition of 0.5M sulphuric acid and plates read on BMG PheraStar at Absorbance 450 nm.

[9] = molecular target: T3, human CD137-human Fc chimeric protein …; assay: SPR (Biacore T200), single cycle kinetics, CD137-Fc captured on Protein G chip, mean ± SD; human CD137Fc
Experimental: (§3) The Biacore T200 instrument was used to study the interaction between VH with human and rhesus CD137-human IgG1 Fc tagged protein by surface plasmon resonance (SPR). Single cycle kinetics assays used to evaluate the kinetics and affinity of the interaction. Experiments were performed at 25° C. in HBS-EP+ assay buffer with a flow rate of 30 μl/minute. A Protein G chip was used to capture the Fc tagged recombinant CD137 diluted to 2 μg/ml to one of the flow cells over 7 seconds. A second flow cell without any captured CD137 was used as the reference cell. A five point, three-fold dilution series of VH was made with a top concentration of 60 nM. The binding kinetics were followed by flowing these over the chip surface. The contact time for each of the binding steps was 180 seconds and the dissociation step was 1800 and 3600 seconds for rhesus and human CD137 respectively. After each run, the sensors were regenerated with glycine pH 1.5 to remove the captured CD137. The data was fitted to a 1:1 binding model after double reference subtraction using the Biacore T200 Evaluation software.

[10] = molecular target: T6, rhesus CD137Fc recombinant protein (Sino Biologicals cat no. 90847-K02H) (rhesus; human, UniProt H9Z8K9 24-186); assay: SPR (Biacore T200), single cycle kinetics, rhesus CD137-Fc captured on Protein G chip, mean ± SD; rhesus CD137Fc
T6 construct: Bought protein; also called rhesus CD137-human IgG1 Fc tagged protein; not shown: human IgG1 Fc tag
T6 sequence: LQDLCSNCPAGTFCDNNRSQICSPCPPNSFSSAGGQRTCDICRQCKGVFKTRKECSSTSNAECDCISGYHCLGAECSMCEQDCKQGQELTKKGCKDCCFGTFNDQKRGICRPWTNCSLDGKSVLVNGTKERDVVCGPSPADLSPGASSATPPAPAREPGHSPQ
Experimental: as §3

T4 sequence (Q04609 44-750 limits assumed): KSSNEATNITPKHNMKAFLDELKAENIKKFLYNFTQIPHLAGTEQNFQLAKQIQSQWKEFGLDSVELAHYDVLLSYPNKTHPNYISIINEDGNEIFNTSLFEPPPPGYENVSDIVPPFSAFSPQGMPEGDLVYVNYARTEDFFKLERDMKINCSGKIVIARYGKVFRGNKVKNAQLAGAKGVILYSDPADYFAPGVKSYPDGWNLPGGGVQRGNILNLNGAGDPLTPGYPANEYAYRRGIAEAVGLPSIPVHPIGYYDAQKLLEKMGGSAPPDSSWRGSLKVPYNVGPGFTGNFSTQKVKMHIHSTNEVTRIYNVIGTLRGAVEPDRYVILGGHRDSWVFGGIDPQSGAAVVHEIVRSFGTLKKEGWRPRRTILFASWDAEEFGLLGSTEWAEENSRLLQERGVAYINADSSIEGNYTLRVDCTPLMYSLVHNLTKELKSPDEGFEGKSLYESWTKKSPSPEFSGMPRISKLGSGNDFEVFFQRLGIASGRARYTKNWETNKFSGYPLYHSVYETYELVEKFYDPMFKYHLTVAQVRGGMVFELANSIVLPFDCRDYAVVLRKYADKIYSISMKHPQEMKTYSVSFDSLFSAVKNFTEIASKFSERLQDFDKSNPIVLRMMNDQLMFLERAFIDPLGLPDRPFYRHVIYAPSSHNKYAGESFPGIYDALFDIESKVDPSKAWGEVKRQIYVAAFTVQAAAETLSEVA
T2 sequence (Q07011 24-255 limits assumed): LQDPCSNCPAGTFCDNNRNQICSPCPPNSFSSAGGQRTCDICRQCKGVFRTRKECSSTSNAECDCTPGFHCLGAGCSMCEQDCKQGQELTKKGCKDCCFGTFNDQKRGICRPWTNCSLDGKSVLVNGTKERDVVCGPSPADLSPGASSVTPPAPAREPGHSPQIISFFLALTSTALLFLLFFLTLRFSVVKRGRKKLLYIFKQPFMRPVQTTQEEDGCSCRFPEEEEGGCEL
T1 sequence (Q04609 whole entry): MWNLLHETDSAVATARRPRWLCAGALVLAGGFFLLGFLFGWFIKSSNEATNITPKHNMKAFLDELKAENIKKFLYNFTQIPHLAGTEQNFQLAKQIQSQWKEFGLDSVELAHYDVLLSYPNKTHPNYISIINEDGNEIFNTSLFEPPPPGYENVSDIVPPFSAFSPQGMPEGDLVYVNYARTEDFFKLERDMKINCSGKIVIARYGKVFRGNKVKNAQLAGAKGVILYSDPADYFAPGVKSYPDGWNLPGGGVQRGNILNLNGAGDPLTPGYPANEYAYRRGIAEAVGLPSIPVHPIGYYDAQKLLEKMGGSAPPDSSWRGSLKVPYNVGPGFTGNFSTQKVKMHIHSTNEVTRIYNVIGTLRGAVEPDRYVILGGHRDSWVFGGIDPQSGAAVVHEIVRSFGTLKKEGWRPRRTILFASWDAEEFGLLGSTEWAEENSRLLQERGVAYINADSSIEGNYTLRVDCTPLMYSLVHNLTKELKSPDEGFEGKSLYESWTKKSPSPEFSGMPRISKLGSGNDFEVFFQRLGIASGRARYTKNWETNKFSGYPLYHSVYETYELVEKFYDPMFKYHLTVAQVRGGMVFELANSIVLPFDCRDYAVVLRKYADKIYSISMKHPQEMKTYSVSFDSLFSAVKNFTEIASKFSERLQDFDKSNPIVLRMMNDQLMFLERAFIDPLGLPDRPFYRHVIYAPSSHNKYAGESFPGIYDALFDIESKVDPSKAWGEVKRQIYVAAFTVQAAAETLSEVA
T5 sequence (Q07011 24-255 limits assumed): as the sequence (Q07011 24-255 limits assumed) above

Binder | EC50 [1] [pM] | EC50 [2] [pM] | EC50 [3] [pM] | IC50 [4] [pM] | Kd [5] [pM] | koff [5] [s⁻¹] | kon [5] [M⁻¹ s⁻¹] | Kd [6] [pM] | koff [6] [s⁻¹] | kon [6] [M⁻¹ s⁻¹] | EC50 [7] [pM] | EC50 (read off the curve) [8] [pM] | Kd [9] [pM] | koff [9] [s⁻¹] | kon [9] [M⁻¹ s⁻¹] | Kd [10] [pM] | koff [10] [s⁻¹] | kon [10] [M⁻¹ s⁻¹]
B1 | 210 | 190 | 430 | 2500 | 730 | 0.00031 | 410000 | 1300 | 0.00054 | 430000 | 730 | ~800 |  |  |  |  |  | 
B2 | 390 | 280 | 970 | 13000 | 4800 | 0.0026 | 580000 | 660 | 0.00033 | 500000 | 3000 | ~1000 |  |  |  |  |  | 
B3 |  |  | 90 | 730 |  |  |  |  |  |  |  |  | 85 | 0.0003 | 3.6e+06 | 270 | 0.00028 | 1.1e+06
